Experimental data reported in the supplement of paper PMC11316812.
± gives the standard deviation of the averaged measurements.

Assays:
MCF7 = assay: percentage of EdU-negative (G0-arrested) nuclei per well, 72 h; higher = more G0 arrest; conditions: reference: sequence is the full UniProt precursor, the tested protein was the secreted form or ectodomain
hTERT-HMEC = assay: as above; conditions: reference: sequence is the full UniProt precursor, the tested protein was the secreted form or ectodomain
[1] = protein concentration 0.0225 µM
[2] = protein concentration 0.0135 µM
[3] = protein concentration 0.0155 µM
[4] = protein concentration 0.00875 µM
[5] = protein concentration 0.0875 µM
[6] = protein concentration 0.03125 µM
[7] = protein concentration 0.3125 µM
[8] = protein concentration 0.0357143 µM
[9] = protein concentration 0.357143 µM
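Note: secreted proteins added to cultured cells, EdU pulse at the end, nuclei found by Hoechst imaging, EdU status from nuclear versus surrounding ring intensity ratio, PBS as neutral control.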

Row | Sequence | percentage of EdU-negative (MCF7; [1]) | percentage of EdU-negative (MCF7; protein concentration 0.225 µM) | percentage of EdU-negative (hTERT-HMEC; [1]) | percentage of EdU-negative (hTERT-HMEC; protein concentration 0.225 µM) | also measured
1 | MLRAALPALLLPLLGLAAAAVADCPSSTWIQFQDSCYIFLQEAIKVESIEDVRNQCTDHGADMISIHNEEENAFILDTLKKQWKGPDDILLGMFYDTDDASFKWFDNSNMTFDKWTDQDDDEDLVDTCAFLHIKTGEWKKGNCEVSSVEGTLCKTAIPYKRKYLSDNHILISALVIASTVILTVLGAIIWFLYKKHSDSRFTTVFSTAPQSPYNEDCVLVVGEENEYPVQFD [Q8IX05] | 25.83 ± 0.12% | 25.38 ± 0.14% | 4.48 ± 0.56% | 5.29 ± 0.55% | –
2 | MLRAGWLRGAAALALLLAARVVAAFEPITVGLAIGAASAITGYLSYNDIYCRFAECCREERPLNASALKLDLEEKLFGQHLATEVIFKALTGFRNNKNPKKPLTLSLHGWAGTGKNFVSQIVAENLHPKGLKSNFVHLFVSTLHFPHEQKIKLYQDQLQKWIRGNVSACANSVFIFDEMDKLHPGIIDAIKPFLDYYEQVDGVSYRKAIFIFLSNAGGDLITKTALDFWRAGRKREDIQLKDLEPVLSVGVFNNKHSGLWHSGLIDKNLIDYFIPFLPLEYRHVKMCVRAEMRARGSAIDEDIVTRVAEEMTFFPRDEKIYSDKGCKTVQSRLDFH | – | – | – | – | percentage of EdU-negative (MCF7; protein concentration 0.005 µM): 27.8 ± 1%; percentage of EdU-negative (MCF7; protein concentration 0.05 µM): 24.9 ± 1.3%; percentage of EdU-negative (hTERT-HMEC; protein concentration 0.005 µM): 5.1 ± 0.71%; percentage of EdU-negative (hTERT-HMEC; protein concentration 0.05 µM): 6.38 ± 0.16%
3 | MLRFYLFISLLCLSRSDAEETCPSFTRLSFHSAVVGTGLNVRLMLYTRKNLTCAQTINSSAFGNLNVTKKTTFIVHGFRPTGSPPVWMDDLVKGLLSVEDMNVVVVDWNRGATTLIYTHASSKTRKVAMVLKEFIDQMLAEGASLDDIYMIGVSLGAHISGFVGEMYDGWLGRITGLDPAGPLFNGKPHQDRLDPSDAQFVDVIHSDTDALGYKEPLGNIDFYPNGGLDQPGCPKTILGGFQYFKCDHQRSVYLYLSSLRESCTITAYPCDSYQDYRNGKCVSCGTSQKESCPLLGYYADNWKDHLRGKDPPMTKAFFDTAEESPFCMYHYFVDIITWNKNVRRGDITIKLRDKAGNTTESKINHEPTTFQKYHQVSLLARFNQDLDKVAAISLMFSTGSLIGPRYKLRILRMKLRSLAHPERPQLCRYDLVLMENVETVFQPILCPELQL [Q8WWY8] | – | – | – | – | percentage of EdU-negative (MCF7; [2]): 25.5 ± 2.4%; percentage of EdU-negative (MCF7; protein concentration 0.135 µM): 29.4 ± 2.3%; percentage of EdU-negative (hTERT-HMEC; [2]): 5.39 ± 1.9%; percentage of EdU-negative (hTERT-HMEC; protein concentration 0.135 µM): 14.6 ± 3%
4 | MLRGISQLPAVATMSWVLLPVLWLIVQTQAIAIKQTPELTLHEIVCPKKLHILHKREIKNNQTEKHGKEERYEPEVQYQMILNGEEIILSLQKTKHLLGPDYTETLYSPRGEEITTKPENMEHCYYKGNILNEKNSVASISTCDGLRGYFTHHHQRYQIKPLKSTDEKEHAVFTSNQEEQDPANHTCGVKSTDGKQGPIRISRSLKSPEKEDFLRAQKYIDLYLVLDNAFYKNYNENLTLIRSFVFDVMNLLNVIYNTIDVQVALVGMEIWSDGDKIKVVPSASTTFDNFLRWHSSNLGKKIHDHAQLLSGISFNNRRVGLAASNSLCSPSSVAVIEAKKKNNVALVGVMSHELGHVLGMPDVPFNTKCPSGSCVMNQYLSSKFPKDFSTSCRAHFERYLLSQKPKCLLQAPIPTNIMTTPVCGNHLLEVGEDCDCGSPKECTNLCCEALTCKLKPGTDCGGDAPNHTTE | 25.9 ± 0.54% | 27.7 ± 1.7% | 4.82 ± 0.43% | 12.07 ± 0.12% | –
5 | MLRGTLLCAVLGLLRAQPFPCPPACKCVFRDAAQCSGGDVARISALGLPTNLTHILLFGMGRGVLQSQSFSGMTVLQRLMISDSHISAVAPGTFSDLIKLKTLRLSRNKITHLPGALLDKMVLLEQLFLDHNALRGIDQNMFQKLVNLQELALNQNQLDFLPASLFTNLENLKLLDLSGNNLTHLPKGLLGAQAKLERLLLHSNRLVSLDSGLLNSLGALTELQFHRNHIRSIAPGAFDRLPNLSSLTLSRNHLAFLPSALFLHSHNLTLLTLFENPLAELPGVLFGEMGGLQELWLNRTQLRTLPAAAFRNLSRLRYLGVTLSPRLSALPQGAFQGLGELQVLALHSNGLTALPDGLLRGLGKLRQVSLRRNRLRALPRALFRNLSSLESVQLDHNQLETLPGDVFGALPRLTEVLLGHNSWRCDCGLGPFLGWLRQHLGLVGGEEPPRCAGPGAHAGLPLWALPGGDAECPGPRGPPPRPAADSSSEAPVHPALAPNSSEPWVWAQPVTTGKGQDHSPFWGFYFLLLAVQAMITVIIVFAMIKIGQLFRKLIRERALG | – | – | – | – | percentage of EdU-negative (MCF7; [3]): 24.8 ± 4.1%; percentage of EdU-negative (MCF7; protein concentration 0.155 µM): 32.8 ± 1.1%; percentage of EdU-negative (hTERT-HMEC; [3]): 4.92 ± 0.41%; percentage of EdU-negative (hTERT-HMEC; protein concentration 0.155 µM): 9.145 ± 0.063%
6 | MLRKGCCVELLLLLVAAELPLGGGCPRDCVCYPAPMTVSCQAHNFAAIPEGIPVDSERVFLQNNRIGLLQPGHFSPAMVTLWIYSNNITYIHPSTFEGFVHLEELDLGDNRQLRTLAPETFQGLVKLHALYLYKCGLSALPAGVFGGLHSLQYLYLQDNHIEYLQDDIFVDLVNLSHLFLHGNKLWSLGPGTFRGLVNLDRLLLHENQLQWVHHKAFHDLRRLTTLFLFNNSLSELQGECLAPLGALEFLRLNGNPWDCGCRARSLWEWLQRFRGSSSAVPCVSPGLRHGQDLKLLRAEDFRNCTGPASPHQIKSHTLTTTDRAARKEHHSPHGPTRSKGHPHGPRPGHRKPGKNCTNPRNRNQISKAGAGKQAPELPDYAPDYQHKFSFDIMPTARPKRKGKCARRTPIRAPSGVQQASSASSLGASLLAWTLGLAVTLR [Q86UN2] | – | – | – | – | percentage of EdU-negative (MCF7; [4]): 26.2 ± 0.18%; percentage of EdU-negative (MCF7; [5]): 28.6 ± 1.4%; percentage of EdU-negative (hTERT-HMEC; [4]): 5.4 ± 1%; percentage of EdU-negative (hTERT-HMEC; [5]): 5.31 ± 0.34%
7 | MLRLYVLVMGVSAFTLQPAAHTGAARSCRFRGRHYKREFRLEGEPVALRCPQVPYWLWASVSPRINLTWHKNDSARTVPGEEETRMWAQDGALWLLPALQEDSGTYVCTTRNASYCDKMSIELRVFENTDAFLPFISYPQILTLSTSGVLVCPDLSEFTRDKTDVKIQWYKDSLLLDKDNEKFLSVRGTTHLLVHDVALEDAGYYRCVLTFAHEGQQYNITRSIELRIKKKKEETIPVIISPLKTISASLGSRLTIPCKVFLGTGTPLTTMLWWTANDTHIESAYPGGRVTEGPRQEYSENNENYIEVPLIFDPVTREDLHMDFKCVVHNTLSFQTLRTTVKEASSTFSWGIVLAPLSLAFLVLGGIWMHRRCKHRTGKADGLTVLWPHHQDFQSYPK | 25.1 ± 1.5% | 30.8 ± 0.31% | 5.09 ± 0.47% | 9.76 ± 1.8% | –
8 | MLRMRVPALLVLLFCFRGRAGPSPHFLQQPEDLVVLLGEEARLPCALGAYWGLVQWTKSGLALGGQRDLPGWSRYWISGNAANGQHDLHIRPVELEDEASYECQATQAGLRSRPAQLHVLVPPEAPQVLGGPSVSLVAGVPANLTCRSRGDARPTPELLWFRDGVLLDGATFHQTLLKEGTPGSVESTLTLTPFSHDDGATFVCRARSQALPTGRDTAITLSLQYPPEVTLSASPHTVQEGEKVIFLCQATAQPPVTGYRWAKGGSPVLGARGPRLEVVADASFLTEPVSCEVSNAVGSANRSTALDVLFGPILQAKPEPVSVDVGEDASFSCAWRGNPLPRVTWTRRGGAQVLGSGATLRLPSVGPEDAGDYVCRAEAGLSGLRGGAAEARLTVNAPPVVTALHSAPAFLRGPARLQCLVFASPAPDAVVWSWDEGFLEAGSQGRFLVETFPAPESRGGLGPGLISVLHISGTQESDFSRSFNCSARNRLGEGGAQASLGRRDLLPTVRIVAGVAAATTTLLMVITGVALCCWRHSKASASFSEQKNLMRIPGSSDGSSSRGPEEEETGSREDRGPIVHTDHSDLVLEEEGTLETKDPTNGYYKVRGVSVSLSLGEAPGGGLFLPPPSPLGPPGTPTFYDFNPHLGMVPPCRLYRARAGYLTTPHPRAFTSYIKPTSFGPPDLAPGTPPFPYAAFPTPSHPRLQTHV [Q6UWL6] | 26.9 ± 3.4% | 28.2 ± 1.2% | 5.24 ± 0.16% | 5.69 ± 0.77% | –
9 | MLRRRGSPGMGVHVGAALGALWFCLTGALEVQVPEDPVVALVGTDATLCCSFSPEPGFSLAQLNLIWQLTDTKQLVHSFAEGQDQGSAYANRTALFPDLLAQGNASLRLQRVRVADEGSFTCFVSIRDFGSAAVSLQVAAPYSKPSMTLEPNKDLRPGDTVTITCSSYQGYPEAEVFWQDGQGVPLTGNVTTSQMANEQGLFDVHSILRVVLGANGTYSCLVRNPVLQQDAHSSVTITPQRSPTGAVEVQVPEDPVVALVGTDATLRCSFSPEPGFSLAQLNLIWQLTDTKQLVHSFTEGRDQGSAYANRTALFPDLLAQGNASLRLQRVRVADEGSFTCFVSIRDFGSAAVSLQVAAPYSKPSMTLEPNKDLRPGDTVTITCSSYRGYPEAEVFWQDGQGVPLTGNVTTSQMANEQGLFDVHSVLRVVLGANGTYSCLVRNPVLQQDAHGSVTITGQPMTFPPEALWVTVGLSVCLIALLVALAFVCWRKIKQSCEEENAGAEDQDGEGEGSKTALQPLKHSDSKEDDGQEIA [Q5ZPR3] | – | – | – | – | percentage of EdU-negative (MCF7; protein concentration 0.019 µM): 24.4 ± 2.3%; percentage of EdU-negative (MCF7; protein concentration 0.19 µM): 27.33 ± 0.26%; percentage of EdU-negative (hTERT-HMEC; protein concentration 0.019 µM): 5.89 ± 0.34%; percentage of EdU-negative (hTERT-HMEC; protein concentration 0.19 µM): 9.74 ± 0.48%
10 | MLSCRLQCALAALSIVLALGCVTGAPSDPRLRQFLQKSLAAAAGKQELAKYFLAELLSEPNQTENDALEPEDLSQAAEQDEMRLELQRSANSNPAMAPRERKAGCKNFFWKTFTSC | – | – | – | – | percentage of EdU-negative (MCF7; [6]): 25.9 ± 3.1%; percentage of EdU-negative (MCF7; [7]): 27 ± 1.9%; percentage of EdU-negative (hTERT-HMEC; [6]): 5.72 ± 0.93%; percentage of EdU-negative (hTERT-HMEC; [7]): 4.88 ± 0.35%
11 | MLSGRLVLGLVSMAGRVCLCQGSAGSGAIGPVEAAIRTKLEEALSPEVLELRNESGGHAVPPGSETHFRVAVVSSRFEGLSPLQRHRLVHAALAEELGGPVHALAIQARTPAQWRENSQLDTSPPCLGGNKKTLGTP [Q9Y3E2] | 28 ± 1.9% | 27.3 ± 2.5% | 5.42 ± 0.18% | 5.59 ± 0.52% | –
12 | MLSSVVFWGLIALIGTSRGSYPFSHSMKPHLHPRLYHGCYGDIMTMKTSGATCDANSVMNCGIRGSEMFAEMDLRAIKPYQTLIKEVGQRHCVDPAVIAAIISRESHGGSVLQDGWDHRGLKFGLMQLDKQTYHPVGAWDSKEHLSQATGILTERIKAIQKKFPTWSVAQHLKGGLSAFKSGIEAIATPSDIDNDFVNDIIARAKFYKRQSF [Q86SG7] | 27.3 ± 1.4% | 25.6 ± 2.5% | 4.33 ± 0.76% | 5.09 ± 0.33% | –
13 | MLTRLVLSAHLSSTTSPPWTHAAISWELDNVLMPSPRIWPQVTPTGRSASVRSEGNTSSLWNFSAGQDVHAIVTRTCESVLSSAVYTHGCGCVRSATNITCQSSGQQRQAARQEEENSICKAHDSREGRLGYPLSAHQPGSGGPN [Q8TAV5] | 24.95 ± 0.064% | 26 ± 2.6% | 5.652 ± 0.04% | 12.7 ± 0.25% | –
14 | MLTTLLPILLLSGWAFCSQDASDGLQRLHMLQISYFRDPYHVWYQGNASLGGHLTHVLEGPDTNTTIIQLQPLQEPESWARTQSGLQSYLLQFHGLVRLVHQERTLAFPLTIRCFLGCELPPEGSRAHVFFEVAVNGSSFVSFRPERALWQADTQVTSGVVTFTLQQLNAYNRTRYELREFLEDTCVQYVQKHISAENTKGSQTSRSYTSLVLGVLVGSFIIAGVAVGIFLCTGGRRC [Q9UNN8] | – | – | – | – | percentage of EdU-negative (MCF7; [8]): 24.2 ± 1.7%; percentage of EdU-negative (MCF7; [9]): 25.3 ± 1.2%; percentage of EdU-negative (hTERT-HMEC; [8]): 4.92 ± 0.17%; percentage of EdU-negative (hTERT-HMEC; [9]): 6.22 ± 0.072%
